Results taken from patent US20240360228A1 (BIOLEGEND, published 2024).

What was measured:
[1] = target: human chemokine (C-C motif) receptor 8 (CCR8) (human) (UniProt P51685); test: flow cytometry, human PBMC, CD3+ gate; % cells stained by PE-L263G8 after isotype control block
[2] = target: human chemokine (C-C motif) receptor 8 (CCR8) (human) (UniProt P51685); test: flow cytometry, human PBMC, CD3+ gate; % cells stained by PE-433H after isotype control block
[3] = target: T1, human chemokine (C-C motif) receptor 8 (CCR8) (human, UniProt P51685 1-355); test: flow cytometry blocking, human PBMC, CD3+ gate; competitor PE-AB11
T1 construct: also called hCCR8
T1 sequence (P51685 whole entry): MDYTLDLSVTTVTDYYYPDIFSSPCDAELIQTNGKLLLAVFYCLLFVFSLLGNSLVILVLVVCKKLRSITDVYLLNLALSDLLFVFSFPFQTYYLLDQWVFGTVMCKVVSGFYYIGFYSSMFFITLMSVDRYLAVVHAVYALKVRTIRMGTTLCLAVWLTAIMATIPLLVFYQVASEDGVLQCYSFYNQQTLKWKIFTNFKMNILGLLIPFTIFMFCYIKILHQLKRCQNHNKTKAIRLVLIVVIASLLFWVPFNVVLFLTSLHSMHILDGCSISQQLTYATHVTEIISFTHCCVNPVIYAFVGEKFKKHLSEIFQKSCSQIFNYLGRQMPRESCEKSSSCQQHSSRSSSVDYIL
Protocol: (§1) For blocking studies, 100 μL of the cell suspension were incubated with 10 μg purified isotype control, AB1, AB2, AB3, AB4, AB5, AB8, AB9, AB10, AB11, AB12, AB13, AB14, AB15, and Commercial ABI antibodies, or isotype control, as blocking agents.
(§2) After incubation with the blocking agent, the cells were incubated with 0.25 μg of the indicated PE-conjugated antibody plus anti-human CD4 APC or anti-human CD3 for another 15 minutes in the dark and then washed 2 times with Cell Staining Buffer, and acquired in a FACSCanto II flow cytometer (BD Biosciences); the data was analyzed using FCS Express (De Novo Software); MFI correspond to the CCR8+ CD4+ lymphocytes or CCR8+ CD3+ lymphocytes.
(§3) Percentage original MFI was calculated by dividing the MFI of samples blocked with AB1, AB2, AB3, AB4, AB5, AB6, AB7, AB8, AB9, AB10, AB11, AB12, AB13, AB14, AB15, and Commercial ABI antibodies, by the MFI of samples blocked with the corresponding isotype control. This value was subtracted from 100 to get a blocking percentage. The formula is shown below: […]

[4] = target: T1, human chemokine (C-C motif) receptor 8 …; test: flow cytometry blocking, human PBMC, CD3+ gate; % cells stained by competitor PE-AB5 after block
Protocol: as §1, §2

[5] = target: T1, human chemokine (C-C motif) receptor 8 …; test: flow cytometry blocking, human PBMC, CD3+ gate; % cells stained by competitor PE-433H after block
Protocol: as §1, §2

[6] = target: T1, human chemokine (C-C motif) receptor 8 …; test: flow cytometry blocking, human PBMC, CD3+ gate; % cells stained by competitor PE-AB7 after block
Protocol: as §1, §2

[7] = target: T1, human chemokine (C-C motif) receptor 8 …; test: flow cytometry blocking, human PBMC, CD3+ gate; competitor PE-L263G8
[8] = target: T1, human chemokine (C-C motif) receptor 8 …; test: flow cytometry blocking, human PBMC, CD3+ gate; % cells stained by competitor PE-AB12 after block
Protocol: as §1, §2

[9] = target: T1, human chemokine (C-C motif) receptor 8 …; test: flow cytometry blocking, human PBMC, CD3+ gate; competitor PE-AB5
Protocol: as §1, §2, §3

[10] = target: T1, human chemokine (C-C motif) receptor 8 …; test: flow cytometry blocking, human PBMC, CD3+ gate; competitor PE-AB8
Protocol: as §1, §2, §3

[11] = target: T1, human chemokine (C-C motif) receptor 8 …; test: flow cytometry blocking, human PBMC, CD3+ gate; competitor PE-AB12
Protocol: as §1, §2, §3

[12] = target: T1, human chemokine (C-C motif) receptor 8 …; test: flow cytometry blocking, human PBMC, CD3+ gate; % cells stained by competitor PE-L263G8 after block
Protocol: as §1, §2

[13] = target: T1, human chemokine (C-C motif) receptor 8 …; test: flow cytometry blocking, human PBMC, CD3+ gate; % cells stained by competitor PE-AB8 after block
Protocol: as §1, §2

[14] = target: T1, human chemokine (C-C motif) receptor 8 …; test: flow cytometry blocking, human PBMC, CD3+ gate; competitor PE-AB14
Protocol: as §1, §2, §3

[15] = target: T1, human chemokine (C-C motif) receptor 8 …; test: flow cytometry blocking, human PBMC, CD3+ gate; % cells stained by competitor PE-AB13 after block
Protocol: as §1, §2

[16] = target: T1, human chemokine (C-C motif) receptor 8 …; test: flow cytometry blocking, human PBMC, CD3+ gate; % cells stained by competitor PE-AB11 after block
Protocol: as §1, §2

[17] = target: T1, human chemokine (C-C motif) receptor 8 …; test: flow cytometry blocking, human PBMC, CD3+ gate; competitor PE-433H
[18] = target: T1, human chemokine (C-C motif) receptor 8 …; test: flow cytometry blocking, human PBMC, CD3+ gate; competitor PE-AB7
Protocol: as §1, §2, §3

[19] = target: T1, human chemokine (C-C motif) receptor 8 …; test: flow cytometry blocking, human PBMC, CD3+ gate; % cells stained by competitor PE-AB15 after block
Protocol: as §1, §2

[20] = target: T1, human chemokine (C-C motif) receptor 8 …; test: flow cytometry blocking, human PBMC, CD3+ gate; competitor PE-AB15
Protocol: as §1, §2, §3

[21] = target: T1, human chemokine (C-C motif) receptor 8 …; test: flow cytometry blocking, human PBMC, CD3+ gate; competitor PE-AB13
Protocol: as §1, §2, §3

[22] = target: T1, human chemokine (C-C motif) receptor 8 …; test: flow cytometry blocking, human PBMC, CD3+ gate; competitor PE-AB10
Protocol: as §1, §2, §3

[23] = target: T1, human chemokine (C-C motif) receptor 8 …; test: flow cytometry blocking, human PBMC, CD3+ gate; % cells stained by competitor PE-AB6 after block
Protocol: as §1, §2

[24] = target: T1, human chemokine (C-C motif) receptor 8 …; test: flow cytometry blocking, human PBMC, CD3+ gate; % cells stained by competitor PE-AB10 after block
Protocol: as §1, §2

[25] = target: T1, human chemokine (C-C motif) receptor 8 …; test: flow cytometry blocking, human PBMC, CD3+ gate; competitor PE-AB6
Protocol: as §1, §2, §3

[26] = target: T1, human chemokine (C-C motif) receptor 8 …; test: flow cytometry blocking, human PBMC, CD3+ gate; % cells stained by competitor PE-AB14 after block
Protocol: as §1, §2

human chemokine (C-C motif) receptor 8 (CCR8) (human), sequence (P51685 whole entry): as above

| % Blocking [3] [%] | % Positive cells [4] [%] | % Positive cells [5] [%] | % Positive cells [6] [%] | % Blocking [7] [%] | % Positive cells [8] [%] | % Blocking [9] [%] | % Blocking [10] [%] | % Blocking [11] [%] | % Positive cells [12] [%] | % Positive cells [13] [%] | % Blocking [14] [%] | % Positive cells [15] [%] | % Positive cells [16] [%] | % Blocking [17] [%] | % Blocking [18] [%] | % Positive cells [19] [%] | % Blocking [20] [%] | % Blocking [21] [%] | % Blocking [22] [%] | Molecule | other results |
| --- | --- | --- | --- | --- | --- | --- | --- | --- | --- | --- | --- | --- | --- | --- | --- | --- | --- | --- | --- | --- | --- |
| 98.7 | 8.49 | 3.73 | 8.87 | 92.7 | 0.17 | -2.41 | -4.02 | 97.7 | 0.43 | 8.8 | 98.3 | 0.39 | 0.09 | 47.2 | 2.53 | 0.16 | 97.6 | 94.1 | 96.5 | anti-CCR8 monoclonal antibody AB11 (antibody, V domains shown, Hybridoma monoclonal; also called antibody 11; clone 11) VH: EVQLVESGGGLVQPKGSLKLSCAASGFAFNTYAMNWVRQAPGKGLEWIARLRSKSNFYATYYADSVKDRFTISRDDSQSMLYLQMNNLKTEDTAVYYCVRGRELGPSYAMDYWGQGTSVTVSS VL: DIVMTQAAPSVPVTPGESVSISCRSSKSLLHSNGNTYLYWFLQRPGQSPQLLIYRMSNLASGVPDRFSGSGSGTAFTLRISRVEAEDVGVYYCMQHLEYPYTFGGGTKLEIK | % Positive cells [23]: 8.04%; % Positive cells [24]: 0.21%; % Blocking [25]: 2.9%; % Positive cells [26]: 0.12% |
| 0.85 | 8.39 | 6.58 | 6.34 | 20.3 | 6 | -1.21 | 25.3 | 20.3 | 4.68 | 6.32 | 39.4 | 4.34 | 6.96 | 6.93 | 30.3 | 3.52 | 46.5 | 34.7 | -2.65 | anti-CCR8 monoclonal antibody AB13 (antibody, V domains shown, Hybridoma monoclonal; also called antibody 13; clone 13) VH: EVQLVETGGGLVQPKGSLKLSCAASGFTFNAYAMNWVRQAPGKGLEWVARIRTKSNNYATYYADSVKDRFTISRDDSQTMLYLQMNNLKTEDTAMYYCVRDRATVTTGRAMDYWGQGTSVTVSS VL: DIVMTQAAPSLPVTPGESVSISCRSSKSLLHSNGNTYLYWFLQRAGQSPQLLIYRMSNLASGVPDRFSGSGSGTAFTLRISRVEAEDVGVYYCMQHLEYPFTFGSGTKLEIK | % Positive cells [23]: 8.62%; % Positive cells [24]: 6.19%; % Blocking [25]: -4.11%; % Positive cells [26]: 4.32% |

The next lines start with the molecule.

| Molecule | % Blocking [3] [%] | % Positive cells [4] [%] | % Positive cells [5] [%] | % Positive cells [6] [%] | % Blocking [7] [%] | % Positive cells [8] [%] | % Blocking [9] [%] | % Blocking [10] [%] | % Blocking [11] [%] | % Positive cells [12] [%] | % Positive cells [13] [%] | % Blocking [14] [%] | % Positive cells [15] [%] | % Positive cells [16] [%] | % Blocking [17] [%] | % Blocking [18] [%] | % Positive cells [19] [%] | % Blocking [20] [%] | % Blocking [21] [%] | % Blocking [22] [%] | other results |
| --- | --- | --- | --- | --- | --- | --- | --- | --- | --- | --- | --- | --- | --- | --- | --- | --- | --- | --- | --- | --- | --- |
| Commercial L263G8 anti-human CCR8 antibody | – | – | – | – | – | – | – | – | – | – | – | – | – | – | – | – | – | – | – | – | % Positive cells [1]: 5.87% |
| Commercial 433H anti-human CCR8 antibody (antibody, from another filing, V domains shown) VH: EVQLVETGGGLVQPKGSLRLSCAASGFPFNTFAMNWVRQAPGKGLEWLARIRSKSNNYATYYADSVKDRFTISRDDSRRMLYLLMNNVKFEDTAIYYCVRGKENNYGYAMDYWGQGTSVTVSS VL: DIVMTQAAPSVPVTPGESVSISCRSSQSLLHSNGNTYLYWFLQRPGQSPQLLIYRMSNLASGVPDRFSGSGSGTAFTLRISRVEAEDVGVYYCMQHLEYPFTFGIGTKLELKR | – | – | – | – | – | – | – | – | – | – | – | – | – | – | – | – | – | – | – | – | % Positive cells [2]: 7.07% |
